The results in this text go back to patent US20260226184A1.

The target in assay [1] is IL-2R (IL-2 receptor on the BCMA CAR T cells) (human) (UniProt P01589). As to the kind of experiment: cell-based or functional assay.
The target of assay [2] is CAR that binds human CD19 (scFv derived from anti-human CD19 antibody clone FMC69, human CD28 and CD3zeta intracellular signaling domains), on human T cells. The assay can be described thus: flow cytometry, dose-dependent staining of CD19 CAR T cells, y-axis %Binding; the value stands above the plot, in which only this curve rises. (A flow cytometer gives signals particle by particle.)

The target of assay [3] is CAR that binds human BCMA (scFv derived from anti-human BCMA antibody clone MSK54, human 41BB and CD3zeta intracellular signaling domains), on human T cells. As to the kind of experiment: cell-based or functional assay.
The target is the same in assay [4]. The assay can be described thus: flow cytometry, staining of BCMA CAR T cells with varying concentrations, Alexa647-labeled anti-FLAG secondary.
For assay [5] the target is unchanged. The assay can be described thus: flow cytometry, anti-CD45 (y) against AF647-tagged BCMA-CH3 (x); CAR + Treatment mouse (BCMA CAR T cells and BCMA-muIL2); Bone Marrow Left.
The target is the same in assay [6]. The assay can be described thus: flow cytometry, anti-CD45 (y) against AF647-tagged BCMA-CH3 (x); CAR + Treatment mouse (BCMA CAR T cells and BCMA-muIL2); Liver.
For assay [7] the target is unchanged. The assay can be described thus: flow cytometry, anti-CD45 (y) against AF647-tagged BCMA-CH3 (x); CAR + Treatment mouse (BCMA CAR T cells and BCMA-muIL2); Blood.
The target is the same in assay [8]. The assay can be described thus: flow cytometry, anti-CD45 (y) against AF647-tagged BCMA-CH3 (x); CAR + Treatment mouse (BCMA CAR T cells and BCMA-muIL2); Spleen.
For assay [9] the target is unchanged. The assay can be described thus: flow cytometry, anti-CD45 (y) against AF647-tagged BCMA-CH3 (x); CAR only mouse, upper row (CAR T cells without CAR-engager; the text says little to no CD45+ cells persisted); Liver.
The target is the same in assay [10]. The assay can be described thus: flow cytometry, anti-CD45 (y) against AF647-tagged BCMA-CH3 (x); CAR only mouse, lower row (CAR T cells without CAR-engager; the text says little to no CD45+ cells persisted); Bone Marrow Right.
Assay [11] has the same target. The assay can be described thus: flow cytometry, anti-CD45 (y) against AF647-tagged BCMA-CH3 (x); CAR + Treatment mouse (BCMA CAR T cells and BCMA-muIL2); Lung.
For assay [12] the target is unchanged. The assay can be described thus: flow cytometry, anti-CD45 (y) against AF647-tagged BCMA-CH3 (x); CAR only mouse, lower row (CAR T cells without CAR-engager; the text says little to no CD45+ cells persisted); Blood.
For assay [13] the target is unchanged. As to the kind of experiment: flow cytometry, anti-CD45 (y) against AF647-tagged BCMA-CH3 (x); CAR only mouse, upper row (CAR T cells without CAR-engager; the text says little to no CD45+ cells persisted); Spleen.
Assay [14] shares this target. As to the kind of experiment: flow cytometry, anti-CD45 (y) against AF647-tagged BCMA-CH3 (x); CAR only mouse, lower row (CAR T cells without CAR-engager; the text says little to no CD45+ cells persisted); Lung.
The target is the same in assay [15]. As to the kind of experiment: flow cytometry, anti-CD45 (y) against AF647-tagged BCMA-CH3 (x); CAR only mouse, upper row (CAR T cells without CAR-engager; the text says little to no CD45+ cells persisted); Lung.
The target is the same in assay [16]. The assay can be described thus: flow cytometry, anti-CD45 (y) against AF647-tagged BCMA-CH3 (x); CAR + Treatment mouse (BCMA CAR T cells and BCMA-muIL2); Bone Marrow Right.
For assay [17] the target is unchanged. The assay can be described thus: flow cytometry, anti-CD45 (y) against AF647-tagged BCMA-CH3 (x); CAR only mouse, lower row (CAR T cells without CAR-engager; the text says little to no CD45+ cells persisted); Bone Marrow Left.
For assay [18] the target is unchanged. The assay can be described thus: flow cytometry, anti-CD45 (y) against AF647-tagged BCMA-CH3 (x); CAR only mouse, upper row (CAR T cells without CAR-engager; the text says little to no CD45+ cells persisted); Lymph node.
For assay [19] the target is unchanged. The assay can be described thus: flow cytometry, anti-CD45 (y) against AF647-tagged BCMA-CH3 (x); CAR only mouse, upper row (CAR T cells without CAR-engager; the text says little to no CD45+ cells persisted); Bone Marrow Left.
Assay [20] shares this target. The assay can be described thus: flow cytometry, anti-CD45 (y) against AF647-tagged BCMA-CH3 (x); CAR + Treatment mouse (BCMA CAR T cells and BCMA-muIL2); Tumor Eye.
For assay [21] the target is unchanged. As to the kind of experiment: flow cytometry, anti-CD45 (y) against AF647-tagged BCMA-CH3 (x); CAR only mouse, lower row (CAR T cells without CAR-engager; the text says little to no CD45+ cells persisted); Liver.
The target is the same in assay [22]. The assay can be described thus: flow cytometry, anti-CD45 (y) against AF647-tagged BCMA-CH3 (x); CAR only mouse, upper row (CAR T cells without CAR-engager; the text says little to no CD45+ cells persisted); Bone Marrow Right.
Assay [23] has the same target. As to the kind of experiment: flow cytometry, anti-CD45 (y) against AF647-tagged BCMA-CH3 (x); CAR only mouse, upper row (CAR T cells without CAR-engager; the text says little to no CD45+ cells persisted); Blood.
Assay [24] has the same target. As to the kind of experiment: flow cytometry, anti-CD45 (y) against AF647-tagged BCMA-CH3 (x); CAR only mouse, lower row (CAR T cells without CAR-engager; the text says little to no CD45+ cells persisted); Kidney.
Assay [25] has the same target. As to the kind of experiment: flow cytometry, anti-CD45 (y) against AF647-tagged BCMA-CH3 (x); CAR + Treatment mouse (BCMA CAR T cells and BCMA-muIL2); Kidney.
The target is the same in assay [26]. The assay can be described thus: flow cytometry, anti-CD45 (y) against AF647-tagged BCMA-CH3 (x); CAR + Treatment mouse (BCMA CAR T cells and BCMA-muIL2); Lymph node.
The target is the same in assay [27]. The assay can be described thus: flow cytometry, dose-dependent staining of BCMA CAR T cells, secondary Alexa647-labeled anti-FLAG antibody, y-axis %Binding.
For assay [28] the target is unchanged. The assay can be described thus: flow cytometry, anti-CD45 (y) against AF647-tagged BCMA-CH3 (x); CAR only mouse, lower row (CAR T cells without CAR-engager; the text says little to no CD45+ cells persisted); Lymph node.
The target is the same in assay [29]. The assay can be described thus: flow cytometry, anti-CD45 (y) against AF647-tagged BCMA-CH3 (x); CAR only mouse, upper row (CAR T cells without CAR-engager; the text says little to no CD45+ cells persisted); Kidney.
For assay [30] the target is unchanged. As to the kind of experiment: cell-based or functional assay. The source holds these as a separate data set.

UniProt P01589, sequence (P01589 22-272, chain 1 of 3): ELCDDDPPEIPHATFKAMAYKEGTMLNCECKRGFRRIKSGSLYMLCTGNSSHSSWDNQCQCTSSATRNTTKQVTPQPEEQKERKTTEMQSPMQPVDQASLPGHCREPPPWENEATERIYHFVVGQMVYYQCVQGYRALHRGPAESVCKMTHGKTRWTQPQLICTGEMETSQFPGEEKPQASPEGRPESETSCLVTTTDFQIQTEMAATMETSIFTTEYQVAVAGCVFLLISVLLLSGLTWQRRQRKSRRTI
UniProt P01589, sequence (P14784 27-551, chain 2 of 3, further chain): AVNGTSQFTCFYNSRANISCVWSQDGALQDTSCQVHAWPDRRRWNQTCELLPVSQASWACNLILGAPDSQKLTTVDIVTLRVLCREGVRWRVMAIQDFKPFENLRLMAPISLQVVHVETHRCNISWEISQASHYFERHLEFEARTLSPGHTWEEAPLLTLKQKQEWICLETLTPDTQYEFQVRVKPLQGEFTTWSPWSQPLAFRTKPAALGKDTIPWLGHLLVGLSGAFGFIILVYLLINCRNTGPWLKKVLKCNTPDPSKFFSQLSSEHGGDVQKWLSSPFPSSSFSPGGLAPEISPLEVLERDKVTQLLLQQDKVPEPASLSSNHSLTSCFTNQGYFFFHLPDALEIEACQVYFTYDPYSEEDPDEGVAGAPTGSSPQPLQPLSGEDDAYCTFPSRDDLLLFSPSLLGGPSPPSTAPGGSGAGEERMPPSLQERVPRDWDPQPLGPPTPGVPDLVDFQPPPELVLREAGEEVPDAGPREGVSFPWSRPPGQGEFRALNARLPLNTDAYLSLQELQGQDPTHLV
UniProt P01589, sequence (P31785 23-369, chain 3 of 3, further chain): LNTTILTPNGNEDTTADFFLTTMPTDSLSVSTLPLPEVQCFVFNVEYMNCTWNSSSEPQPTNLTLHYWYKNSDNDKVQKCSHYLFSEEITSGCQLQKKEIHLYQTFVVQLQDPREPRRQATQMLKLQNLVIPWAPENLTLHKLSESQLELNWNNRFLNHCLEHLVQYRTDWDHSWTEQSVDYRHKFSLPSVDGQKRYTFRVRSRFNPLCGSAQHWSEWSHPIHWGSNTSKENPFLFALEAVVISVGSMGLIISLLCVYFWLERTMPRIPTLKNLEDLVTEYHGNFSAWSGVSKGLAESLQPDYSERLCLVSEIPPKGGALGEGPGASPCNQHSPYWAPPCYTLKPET

Turning to “VHH-muIL2 (control construct with an irrelevant nanobody in place of the BCMA ectodomain in the CH3-muIL2 construct)”, the phosphorylation of STAT5 (pY694) in BCMA CAR T cells, EC50 in assay [1] was found to be 3.9 nM.

With “CD19-muIL2 CAR-engager (from UniProt P15391 20-291)”, in assay [2], the EC50 (usually the concentration needed to bring the measured effect to its halfway point) worked out at 0.59 nM.

“BCMA-muIL2 CAR-engager (BCMA-CH3-muIL2-muIL2)” registered a phosphorylation of STAT5 (pY694) in BCMA CAR T cells, EC50 in [1] of 14 pM. This molecule returned a sensitivity of STAT5 phosphorylation against VHH-muIL2 in assay [3] greater than 200 fold. For the same molecule, the EC50 in [4] was found to be 0.21 nM.

B1: BCMA-CH3 (dimeric BCMA lacking the muIL2) (protein)
chain: MLQMAGQCSQNEYFDSLLHACIPCQLRCSSNTPPLTCQRYCNASVTNSVKGTNAEPKSPKSADKTHTAPQPREPQVYTLPPSRDELTKNQVSLTCLVKGFYPSDIAVEWESNGQPENNYKTTPPVLDSDGSFFLYSKLTVDKSRWQQGNVFSCSVMHEALHNHYTQKSLSLSPGK
Turning to B1, the percent of cells in the upper right quadrant (CD45+ AF647+) in assay [5] was 0.75%; in assay [6] it was 3.97%; in assay [7], 0.69%; in assay [8] it was 47.4%; in [9] it was 0.13%; in assay [10], 0.032%. Also, the percent of cells in the upper right quadrant (CD45+ AF647+) amounted to 2.69% in assay [11]; 0.13% in assay [12]; 0.00572% in assay [13]; 0.096% in assay [14]; 0.18% in [15]; 1.01% in assay [16]. Also, the percent of cells in the upper right quadrant (CD45+ AF647+) in [17] amounted to 0.013%; in [18], 1.08%; in assay [19] it was 0.054%; in assay [20], 1.38%; in [21], 0.058%; in assay [22], 0.02%. In addition, the percent of cells in the upper right quadrant (CD45+ AF647+) in [23] came out at 0.2%; in assay [24] it was 0.044%; in assay [25] it was 1.69%; in assay [26], 12.2%; in assay [28], 5.26%; in assay [29], 0.21%. For the same molecule, the concentration giving a half-maximal response (EC50 (read off the curve)) (commonly the midpoint of the concentration-response curve) in assay [27] worked out at 0.2 nM.

B2: BCMA-CH3-Neo-2/15 CAR-engager (protein)
chain: MLQMAGQCSQNEYFDSLLHACIPCQLRCSSNTPPLTCQRYCNASVTNSVKGTNAEPKSPKSADKTHTAPQPREPQVYTLPPSRDELTKNQVSLTCLVKGFYPSDIAVEWESNGQPENNYKTTPPVLDSDGSFFLYSKLTVDKSRWQQGNVFSCSVMHEALHNHYTQKSLSLSPGKGSHMPKKKIQLHAEHALYDALMILNIVKTNSPPAEEKLEDYAFNFELILEEIARLFESGDQKDEAEKAKRMKEWMKRIKTTASEDEQEEMANAIITILQSWIFS
On to B2, for which the lowest threshold of induced expression of CD69 in CAR T cells in assay [30] was 0.01 nM.
